The values that follow come from patent publication CN116003603A (CR BIO MEDICAL INC, dated 2023).

The target of assay [1] is T1, CLDN18.2 (on CLDN18.2过表达细胞, species not stated).
T1 construct: whole, on cells
The experiment in a line: flow cytometry, antibody titration on CLDN18.2 over-expressing cells, MFI (Table 2-2, headed P1530).

Assay [2] addresses T2, CLDN18.2 (antigen of the ka/kd/KD measurement, species and form not stated). The experiment in a line: affinity measurement, method not described (Table 2-2, headed P1530).
In assay [3] the target is T2, CLDN18.2 (antigen of the ka/kd/KD …). The experiment in a line: affinity measurement, method not described.
Assay [4] deals with T1, CLDN18.2 (on CLDN18.2过表达细胞, species not …). The experiment in a line: flow cytometry, antibody titration on CLDN18.2 over-expressing cells, MFI.

T2 sequence (P56856 other isoform, or with tags, fused parts or gaps): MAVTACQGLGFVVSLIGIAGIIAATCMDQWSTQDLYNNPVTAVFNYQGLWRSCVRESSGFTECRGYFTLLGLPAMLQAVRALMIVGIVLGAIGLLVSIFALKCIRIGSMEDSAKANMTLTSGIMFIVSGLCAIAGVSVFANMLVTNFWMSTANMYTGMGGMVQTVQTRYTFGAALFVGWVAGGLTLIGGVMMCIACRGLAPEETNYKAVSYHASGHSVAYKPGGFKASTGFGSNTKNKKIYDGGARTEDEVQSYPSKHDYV

B1: CLDN-BC-P1530-hH1 (antibody, V domains shown)
VH: QVQLVESGGGLVQPGGSLRLSCAASRFTFSNYAMNWVRQAPGKGLEWVSSISGSGGSSYYADSVKGRFTISKDNSQNMLYLQMNSLRAEDTAVYYCAKADWKYGYYGMDVWGQGTTVTVSS
VL: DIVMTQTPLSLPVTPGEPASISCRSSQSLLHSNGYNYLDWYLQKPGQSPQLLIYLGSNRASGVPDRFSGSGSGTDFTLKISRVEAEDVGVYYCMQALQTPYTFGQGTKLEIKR
notes: also called P1530-IgG1
The molecule B1 registered an EC50 in assay [1] of 0.62 µg/mL. In assay [2], this molecule had a Kd of 6.8 nM, a koff of 0.00355 s⁻¹ and a kon of 523000 M⁻¹ s⁻¹.

B2: CLDN-BC-P1531-hH1 (antibody, V domains shown)
VH: QVQLVESGGGLVQPGGSLRLSCAASRFTFSNYAMNWVRQAPGKGLEWVSSISGSGGSSYYADSVKGRFTISKDNSQNMLYLQMNSLRAEDTAVYYCAKADWKYGYYGMDVWGQGTMVTVSS
VL: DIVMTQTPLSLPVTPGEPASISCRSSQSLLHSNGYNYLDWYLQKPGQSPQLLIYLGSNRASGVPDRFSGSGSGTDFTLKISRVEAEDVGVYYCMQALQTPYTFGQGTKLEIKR
notes: also called CLN-P1531-hH1; P1531-IgG1
Regarding B2, in assay [3], binding was put at a Kd of 5.9 nM, the koff was determined as 0.00293 s⁻¹ and the kon turned out to be 497000 M⁻¹ s⁻¹. This molecule also showed an EC50 in assay [4] of 0.69 µg/mL.
